Laboratory results as given in the DeepSol protein solubility set.

Assay: soluble on expression in E. coli; label from the status in PepcDB or PDB records

| Sequence | soluble on expression in E. coli |
| --- | --- |
| MSLNEPDGVLSYQRPDEEAVVDQGGTSTILNIHYEKEELEGHRTLYVGVRMPLGRQSHRHHRTHGQKHRRRGGRGKGASQGEEGLEALAHDTPSQRVQFILGTEEDEEHVPHELFTELDEICMKEGEDAEWKETARWLKFEEDVEDGGERWSKPYVATLSLHSLFELRSCLINGSVLLDMRASSIEEISDLILDQQELLRDLSDSVRVKVREALLKKHHHQNERRRNNLIPIVRSFAEVGKKQSDPHSMDRDGQTVSPQSATNLEVKNGVNCEHSPVDLSKVDLHFMKKIPTGAEASNVLVGEVDTLDRPIVAFVRLSPAVLLSGLTEVPIPTRFLFILLGPVGKGQQYHEIGRSMATIMTDEIFHDVAYKAKERDDLLAGIDEFLDQVTVLPPGEWDPSIRIEPPKNVPSQEKRKMPGVPNGNVCHIEPEPHGGHSGEGHHHHHH | soluble |
| MGSDKIHHHHHHMTTAQHTVEKIGGTSMSNYEAVRDNIIIGKRKKSDLYQRIFVVSAYGGVTNELLEHKKTGEPGVYALFADAESDWAWGDDLTKLIQLLTDINGELFADPMLKQQADQFITDRIEGVRGCLIDLQRLCSYGQFQLEEHLLTVREMLAGIGEAHSAFNTALKLQQEGINARFVDLTGWRDSELLPLDEKLKQAFDAIDLSRELPIVTGYAQCKEGLMRTFDRGYSEMTFSRTAVITNAREAIIHKEYHLSSADPNIVGEDKVVPLGRTNYDVADQLANLGMEAIHPRAGKGLRQNEIPLRVMNTFEPEHTGTLITGDYVSEKPQVEIVAGAKGVFAIEVFDQDMQGEPGSDRRILDVLSRFKVRFMSKDTNANTITHYVDTTLKHVKRVVKALEEEFPNAEISTRKVALVSAIGSDMKVPGILARSVKSLADNDISVLAIHQCMRQVDIQFVVDEDKYDQAIVALHGALIEPHNHEYAIVAASTTAG | not soluble |
| MGSDKIHHHHHHMTVNDKKRLAIIGGGPGGLAAARVFSQSLPNFEIEIFVKDYDIGGVWHYPEQKSDGRVMYDHLETNISKKLMQFSGFPFEENVPLYPSRRNIWEYLKAYYKTFIANKDAISIHFSTEVTYLKKKNSQWEITSKDELRTTKSDFDFVIVASGHYSVPKLPTNIAGLDLWFDNKGAFHSKDFKNCEFAREKVVIVVGNGSSGQDIANQLTTVAKKVYNSIKEPASNQLKAKLIETVQTIDSADWKNRSVTLSDGRVLQNIDYIIFATGYYYSFPFIEPSVRLEVLGEGVTGDKHSSVNLHNLWEHMIYVKDPTLSFILTPQLVIPFPLSELQAAIMVEVFCKSLPITTTFDSNACGTHNFPKERTWNTMQNYRNY | not soluble |
| MGSDKIHHHHHHMNAHTIPELRYAMSREAIIGHETAWKVSSFGVAQYLHGYDPALLAAIEEAALKLKDSHAVHKHLDLTFITGADRFIPEIKELLHDKLRLERLSDMMGTKLEPYPLSIVGSTVTFMNPRDGAVEWHCDGVPVTELIPLSISNPLVGGHLEIYCDDSETGRAILESGREIPRNRIMRIDHKMNYATLGQFLGVLHRTAPIQYGERVTLVLNQRSVAKPYVDDNRMFYLAADNDHDREWVNELAEDVWTNQLPAYRRFEAEHPTPAPASETQVSGGARGSW | not soluble |
| MGKVLIIGAGGVGTVVAKKVAMNTDVFTEIMLASRTRSKCDKIASEIKNVRIQTAQVDADNVEELVALFESFKPELVINVALPYQDLTIMDACLRCGVNYLDTANYEPLDEAKYEYSWQWAYQDRFRK | not soluble |
| MHTIPITTDSAASWDWPLQHNDGVVKVTNTSEKFEVGLDAGFFGPNDIDVKVNGIEIIIHLRHDNRPTEYGIVNREVHRTYKLPEDVDPSTVRSHLNSSGVLTITANKL | not soluble |
| MAHHHHHHMAAADQLRYAAQMIELARSEEREDGNPLTAARCYTTAMEVIASEASKRAAMIESNEARRFFLFQVRSKLEMYHERAELLLQVANGSGLLDKPSLSNGDASALQTNYPPALFASAVANEKSSSGNGGVASCSTGGGVSVLGIPLQPQQMAPSAPPTQTQSSYGDFKEPPMSCYLKPDDDATAEPPPVTPELNLDELMKNLGAPPEL | not soluble |
| MGQRSTPQQIPVVVLAGFLGSGKTTLLNHLLHRSGGSRIGAVVNDFGSIEIDAMAVAGALGDSTVSLGNGCLCCAVDASELDGYLARLARPEAGIDVIVIEASGLAEPQELVRMLLASEQPGIVYGGLVEVVDAAEFDDTRARHPEIDRHLALADLVVVNKTDRATDAERVLGLVHSLVGGAAVVPATYGRIDPEFLYDCRPGEERVGQLSFDDLHDHSEGGAHADHLHAAYDTLSFVSGLPLDPRRLMRFLDSRPKGLYRIKGYVDFGPYDTRNRYAVHAVGRFLRFYPEPWTPAGAAGGSGAPETGRTQLVLIGSGIDAAALGEELDACRRDADAPPADEHGMWGVLRYVADGEEPPDSPLEHHHHHH | not soluble |
| MAHHHHHHMVKETGLYDELGISPDATEPQIRSAYRRKALQYHPDKNSGDPAAAEKFKKVAEAYEILSDAERRKQYDTFGRNGPGGAAGGSGGVPGGGFGSSFGPGTDPMDIFSSFFGFASGGGPGASRQQRPAKPSFILVVLQCSLEELYCGTVKVLQVRRRRLCPSCHGHGTSSGRPSPVCPQCKGNKTVTKALNFGGLTAYQQCRCDHCEGLGKLPIRLPCARCGPVYDAHQRAPLSGTRKPDPLPRGVVVDEKMIKVSIEPGTEDSDALNYVGQGDELPGFGAVGDVLVVIEQLPHPHYHRLNSTDLLLSNCRVPLGCLFRDAFSIPIELLDGRVLRLATPLREGNVPHFLFDSQHVFVVDGEGMPLKGRKGGGAAADANHDDSGAADDVAYRKKGKLYLCVNVVFPSSLTPAQVDIIAKALGGDHERDPAATGEDAGRVVTLQPHHSPAPSWYTVDTEGNAWYQPNGPATAKKKRKATSTTA | not soluble |
| MHNYLDFEKPISDLEGKILELKKLASEDESVNTSDEIARLEGRVRDAMVEIYSKLSPWQKTQVARHPSRPHFLDYASRLFTEFTPLAGDRNFANDDAIQAGLARFHGTPVAVIGQEKGNDTKSRIKHNFGSPRPEGYRKATRIMEMADRFGLPLITLVDTAGAYPGVNAEERGQAEAIARSTEMCLNVKVPIVTVVIGEGGSGGAIAIATGNRVYMLEHAIYSVISPEGAASILWRDSTRAKEAASNMKITAEDLKSLGVIDGIIPEPVGGAHRDPDAVISRTETVIGDALKELSARNGDELRADRRQKYLNIGRNL | not soluble |
| MAVLAVVLLLACLERAVAQTFGCSNTKINDQARKMFYDAHNDARRSMAKGLEPNKCGLLSGGKNVYELNWDCEMEAKAQEWADGCPSSFQTFDPTWGQNYATYMGSIADPLPYASMAVNGWWSEIRTVGLTDPDNKYTNSAMFRFANMANGKASAFGCAYALCAGKLSINCIYNKIGYMTNAIIYEKGDACTSDAECTTYSDSQCKNGLCYKAPQAPVVETFTMCPSVTDQSDQARQNFLDTHNKLRTSLAKGLEADGIAAGAFAPMAKQMPKLKYSCTVEANARTWAKGCLYQHSTSAQRPGLGENLYMISINNMPKIQTAEDSSKAWWSELKDFGVGSDNILTQAVFDRGVGHYTQMAWEGTTEIGCFVENCPTFTYSVCQYGPAGNYMNQLIYTKGSPCTADADCPGTQTCSVAEALCVIP | not soluble |
| MAQSKPAYKVADIKLADFGRKEIILAENEMPGLMAMRSKYGPSQPLKGARIAGCLHMTIQTAVLIETLTALGAEVQWSSCNIFSTQDHAAAAIAQTGVPVYAWKGETDEEYEWCIEQTIVFKDGQPLNMILDDGGDLTNLVHAKYPQYLAGIRGLSEETTTGVHNLAKMLAKGDLKVPAINVNDSVTKSKFDNLYGIRESLPDGIKRATDVMLAGKVAVVAGYGDVGKGSAASLKAFGSRVIVTEIDPINALQAAMEGYEVTTLEEAAPKANIIVTTTGCKDIVTGKHFELLPNDAIVCNVGHFDCEIDVKWLNTNATKKDTIKPQVDRYTLKNGRHVILLAEGRLVNLGCATGHPSFVMSNSFTNQVLAQVELWTKFGTPQEYKLGLYVLPKTLDEEVAYLHLAQLGVKLTKLSDEQASYLGVPVAGPYKPDHYRY | not soluble |
| MASSPQLEEEAAGKLETIHASAMAKSKKKTDVVDSTNLPILELLSLKAPIFQSLLHPELPIIITGFGTGHIVCHRYDPAKLQSHLDRRRRIDTATTGKDAKKGVCPWIRLDIDLETGDLKFVDIEEQQQQKQTGKDEDLGVKTLWKTKRHKGSVRAMCFDSKGDNIFSVGSDNVLKKANTMTGKVVKKVNLSSLFNSEEKKNDKFTKLCASQTHPFILIGDESGNIHVINSENLALSNSIRSIHFGDSINDIFHFDKRSAYKFISLGQTTLAYFDVRDKDAKPNVAGNEDGKILISDDQEDEVLCGCFVDPEVADTLLCGMGEGIVTVWKPNKNDLEDQMSRIKISKDESIDCIVPTLQDDNCVWCGCSNGNIYKVNAKLGKVVEIRNHSELDEVSFVDLDFEYRVVSGGLENIKIWELSSDDVEENASVESDSDEPLSHSDEDLSDDTSSDDETTLVGLSKEELLDELDKDLKEDHQEEKESNSKSVKKRKIMKENNKKKDLYEHGIKKFDDL | soluble |
| MGSDKIHHHHHHAQNFSDYFTNKTLRIDYLFTGNADKQSICLDELSELPVWAGRRHHLSELPLEGNGQIVMRDVASGKVIYTTSFSSLFQEWLETDEAKEVTKGFENTYLLPYPIKPAEVEITLRNNKREVSANLKHVVKPDDILIHKKGLTHITPHKYLLKSGNEEQCIDVAILAEGYTTSEMETFYKDAAIACEALFSHEPFQSMKNRFNIVAVASPSADSGVSAPKQGAWKHTAFGSHFDTFYSDRYLTTSRVKAINDALAGIPYEHIIILANTEQYGGGGIYNAFTLTTAHHPNFRPVVVHEFGHSFGGLADEYFYDEDVMNGLYPLNIEPWEQNITTRINFASKWEDMLTKTTPVPTPVADKAKYPIGVYEGGGYSAKGIYRPAFDCRMRTNEYPTFCPVCQRAIQRIIEFYTGK | not soluble |
| MEEVGGNGGPARIAECGKIGSGTINSNVVPSVNLPSPSVKPSVTPSVKKPPHVIRSDYSKPREKPAKVAKKPTVKNDKKPKPVAIVAPTGIIKTFKTTPNPNRNL | soluble |
| MSSRQGGKMKPLKQKKKQQQDLDPEDIAFKEKQKADAAAKKALMANMKSGKPLVGGGIKKSGKK | soluble |
| NVVLKDASELLDEVVVIGYGAVKKSDLTSSISTVKGKEITETVTGNAMDALQGKINGVQVTSGGGPGAQPKVLIRGVTTVNGTDPLYVVDGMPVGTNINFLNSNDIESMEVLKDASAAAIYGTRASNGVILITTKKGMAGK | not soluble |
| MKIISKEFTVKTRSRFDSIDITEQVSEAIKGINNGIAHVIVKHTTCAIIINEAESGLMKDFLNWAKKLVPPDGEFEHNIIDNNGHAHVISAIIGNSRVVPIIEGKLDLGTWQRIILLEFDGPRTRTVLVKSMGE | soluble |
| MKKRYQTLNEHYRQLFGAKMFKVPIDAGFDCPNRDGTVAHGGCTFCTVSGSGDAIVAPDAPIKEQFYKEIDFMHRKWPDVNRYLVYFQNFTNTHDTVDVIRDRYEQAINEPGVVGINIGTRPDCLPDDTIAYLAELSERMHVTVELGLQTTYEETSRLINRAHSYDLYKETVRRLRHYPNINIVSHLINGLPKETHDMMLENVRRCVTDNDIQGIKLHLLHLMTNTRMQRDYHEGRLKLLSQKDYVSIICDQLEIIPKHIVIHRITGDAPRDMLIGPMWSLNKWEVLNAIDKEMERRGSFQGCKVD | not soluble |
| MGLFFAQNMMYNHTITVYDRNYELVKVIPDEVDLSKYGHSRFKGKYRGAPVEASFSHNGKYAWISNYQMYGPGFNNPGSDKCHPSQKTDKSFLYRINTETLKIDRVIPVGSVPKFVATSTDENLILVSNWCSWDLSVVDINQNQEIKRIKLGPYPRGIVVDPASETAYVAVMGSYNIAKVNLRDFSVQWLRNIGSSPRHLNIDPAGKYLYASLNGEGKIAKISLPQGNLVKKIATGNAPRSMVLSANGQTLYVVNYGEDTVSKVRTSDMKVLQKVKVEPDPIGITYDPQTREVWVACYSGNIMIFQDLEHHHHHH | soluble |
